Reference: PMC3686892

Tested on: C=C(OP(=O)(O)O)C(=O)O
Assay: anti-pHis dot-blot assay of autophosphorylation velocity
Format: biochemical, Escherichia coli
Details: phosphoryl donor; n = 3

Work on enzyme I (PtsI) (Escherichia coli K-12) yielded a Km of 135 ± 30 µM.
